Test results taken from patent US20140087995A1 (published 2014).
Values belong to the binder of their own block, whether it stands above or below them. Numbered stars: 1 amine (or outer) side, 2 acyl side, 3 side chain; on linkers, the order of the positions; unused ones are H or OH. Bridge positions count the residues as written; N and C are the ends. Side chains are listed from the residue outwards. Ends that are not written are not given here. * marks the point of attachment. C20 diacid = O=C(O)CCCCCCCCCCCCCCCCCCC(=O)*; γGlu = O=C(O)[C@H](CCC(=O)[*:2])N[*:1]; AEEA = NCCOCCOCC(=O)O

What was measured:
[1] = target: T1, human calcitonin receptor (human, UniProt P30988 25-474); assay: ratio of binding IC50 at human calcitonin receptor to IC50 at human amylin receptor (reference)
T1 construct: whole, on cells; Used as membranes prepared from the transfected cells; also called hCTR; hCT
T1 sequence (looked up): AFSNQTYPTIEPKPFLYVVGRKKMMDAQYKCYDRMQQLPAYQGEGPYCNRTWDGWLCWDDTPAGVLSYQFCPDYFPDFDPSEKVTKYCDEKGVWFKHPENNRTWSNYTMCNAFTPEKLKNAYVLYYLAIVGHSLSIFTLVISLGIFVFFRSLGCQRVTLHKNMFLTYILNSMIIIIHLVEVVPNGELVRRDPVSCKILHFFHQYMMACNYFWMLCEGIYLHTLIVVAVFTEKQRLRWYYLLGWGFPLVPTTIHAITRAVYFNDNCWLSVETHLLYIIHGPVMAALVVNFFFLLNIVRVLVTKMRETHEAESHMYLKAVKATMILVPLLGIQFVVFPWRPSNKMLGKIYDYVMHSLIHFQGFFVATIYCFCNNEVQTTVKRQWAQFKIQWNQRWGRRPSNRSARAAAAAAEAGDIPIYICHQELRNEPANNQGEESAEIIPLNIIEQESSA
In short: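 Membranes (35 ng/μL final) + SPA beads, 50 mM Hepes pH 7.4 buffer with 1 mM CaCl2, 5 mM MgCl₂, 0.1% OA, 0.02% Tween20; 120 min, 25° C, shaking; centrifuged, counted; IC₅₀ by one-site binding competition.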

rat calcitonin receptor [2] = target: T2, rat calcitonin receptor (rat, UniProt P32214 25-516); assay: ratio of binding IC50 at rat calcitonin receptor to IC50 at rat amylin receptor (reference)
T2 construct: whole, on cells; Used as membranes prepared from the transfected cells; also called rCTR; rCT
T2 sequence (looked up): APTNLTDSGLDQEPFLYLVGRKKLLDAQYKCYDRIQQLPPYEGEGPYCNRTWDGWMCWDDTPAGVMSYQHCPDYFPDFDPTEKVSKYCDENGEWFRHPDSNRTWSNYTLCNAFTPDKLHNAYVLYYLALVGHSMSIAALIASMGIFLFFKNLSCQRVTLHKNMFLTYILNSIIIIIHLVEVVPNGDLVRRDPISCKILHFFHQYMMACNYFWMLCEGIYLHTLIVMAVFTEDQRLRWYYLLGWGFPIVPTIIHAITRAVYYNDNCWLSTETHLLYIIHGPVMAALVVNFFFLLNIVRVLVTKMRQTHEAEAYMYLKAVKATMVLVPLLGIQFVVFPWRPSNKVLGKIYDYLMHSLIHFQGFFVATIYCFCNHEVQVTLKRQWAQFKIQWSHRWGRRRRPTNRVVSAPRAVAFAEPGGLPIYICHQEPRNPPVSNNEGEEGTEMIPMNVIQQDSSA

rat calcitonin receptor [3] = target: T2, rat calcitonin receptor; assay: SPA competition with 125I-calcitonin, membranes with rat calcitonin receptor (Assay VIII)
[4] = target: T3, rat amylin receptor (rat calcitonin receptor with rat RAMP 3) (rat, UniProt P32214 25-516; Q9JJ73 23-147); assay: SPA competition with 125I-rat amylin, membranes with rat calcitonin receptor + rat RAMP3 (Assay VI)
T3 construct: whole, on cells; Used as membranes prepared from the transfected cells; also called rAmylin-R; rAmylin
T3 sequence (looked up) 1: T2 sequence (looked up)
T3 sequence (looked up) 2: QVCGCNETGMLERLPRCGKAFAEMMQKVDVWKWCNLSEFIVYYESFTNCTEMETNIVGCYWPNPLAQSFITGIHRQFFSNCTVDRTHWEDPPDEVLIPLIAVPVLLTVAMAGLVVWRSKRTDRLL

Ratio hCT/hAmylin binding [1]: 65.3
Ratio rCT/rAmylin binding (rat calcitonin receptor [2]): 27.7
IC50 (rat calcitonin receptor [3]): 311 nM
IC50 [4]: 11.2 nM
B1: N^-1-[(4S)-4-carboxy-4-(19-carboxynonadecanoylamino)butanoyl]-Gly[Arg1,His14,Arg17,Pro21,Pro27,His34]-h-amylin (peptide)
peptide: {C20 diacid-γGlu}-GRCNTATCATQRLAHFLRHSSPNFGAIPSSTNVGHNTY-NH2
modifications: disulfide 3-8
SMILES: CC[C@H](C)[C@H](NC(=O)[C@H](C)NC(=O)CNC(=O)[C@H](Cc1ccccc1)NC(=O)[C@H](CC(N)=O)NC(=O)[C@@H]1CCCN1C(=O)[C@H](CO)NC(=O)[C@H](CO)NC(=O)[C@H](Cc1c[nH]cn1)NC(=O)[C@H](CCCNC(=N)N)NC(=O)[C@H](CC(C)C)NC(=O)[C@H](Cc1ccccc1)NC(=O)[C@H](Cc1c[nH]cn1)NC(=O)[C@H](C)NC(=O)[C@H](CC(C)C)NC(=O)[C@H](CCCNC(=N)N)NC(=O)[C@H](CCC(N)=O)NC(=O)[C@@H](NC(=O)[C@H](C)NC(=O)[C@@H]1CSSC[C@H](NC(=O)[C@H](CCCNC(=N)N)NC(=O)CNC(=O)CC[C@H](NC(=O)CCCCCCCCCCCCCCCCCCC(=O)O)C(=O)O)C(=O)N[C@@H](CC(N)=O)C(=O)N[C@@H]([C@@H](C)O)C(=O)N[C@@H](C)C(=O)N[C@@H]([C@@H](C)O)C(=O)N1)[C@@H](C)O)C(=O)N1CCC[C@H]1C(=O)N[C@@H](CO)C(=O)N[C@@H](CO)C(=O)N[C@H](C(=O)N[C@@H](CC(N)=O)C(=O)N[C@H](C(=O)NCC(=O)N[C@@H](Cc1c[nH]cn1)C(=O)N[C@@H](CC(N)=O)C(=O)N[C@H](C(=O)N[C@@H](Cc1ccc(O)cc1)C(N)=O)[C@@H](C)O)C(C)C)[C@@H](C)O
notes: Analogue of human amylin extended by Gly at the N-terminus; disulfide and C-terminal amide as told for h-amylin; also called compound 100

Ratio hCT/hAmylin binding [1]: 46.3
Ratio rCT/rAmylin binding (rat calcitonin receptor [2]): 280
IC50 (rat calcitonin receptor [3]): 111 nM
IC50 [4]: 0.397 nM
B4: N^ε1-[(4S)-4-carboxy-4-(19-carboxynonadecanoylamino)butanoyl]-[Ala14,Arg17,Pro21,Pro27,Pro34]-h-amylin (peptide)
peptide: K([γGlu-C20 diacid])CNTATCATQRLAAFLRHSSPNFGAIPSSTNVGPNTY-NH2
modifications: disulfide 2-7; N-terminus assumed
SMILES: CC[C@H](C)[C@H](NC(=O)[C@H](C)NC(=O)CNC(=O)[C@H](Cc1ccccc1)NC(=O)[C@H](CC(N)=O)NC(=O)[C@@H]1CCCN1C(=O)[C@H](CO)NC(=O)[C@H](CO)NC(=O)[C@H](Cc1c[nH]cn1)NC(=O)[C@H](CCCNC(=N)N)NC(=O)[C@H](CC(C)C)NC(=O)[C@H](Cc1ccccc1)NC(=O)[C@H](C)NC(=O)[C@H](C)NC(=O)[C@H](CC(C)C)NC(=O)[C@H](CCCNC(=N)N)NC(=O)[C@H](CCC(N)=O)NC(=O)[C@@H](NC(=O)[C@H](C)NC(=O)[C@@H]1CSSC[C@H](NC(=O)[C@@H](N)CCCCNC(=O)CC[C@H](NC(=O)CCCCCCCCCCCCCCCCCCC(=O)O)C(=O)O)C(=O)N[C@@H](CC(N)=O)C(=O)N[C@@H]([C@@H](C)O)C(=O)N[C@@H](C)C(=O)N[C@@H]([C@@H](C)O)C(=O)N1)[C@@H](C)O)C(=O)N1CCC[C@H]1C(=O)N[C@@H](CO)C(=O)N[C@@H](CO)C(=O)N[C@H](C(=O)N[C@@H](CC(N)=O)C(=O)N[C@H](C(=O)NCC(=O)N1CCC[C@H]1C(=O)N[C@@H](CC(N)=O)C(=O)N[C@H](C(=O)N[C@@H](Cc1ccc(O)cc1)C(N)=O)[C@@H](C)O)C(C)C)[C@@H](C)O
notes: Analogue of human amylin; disulfide and C-terminal amide as told for h-amylin; also called compound 94

Ratio hCT/hAmylin binding [1]: 51.6
Ratio rCT/rAmylin binding (rat calcitonin receptor [2]): 85.4
IC50 (rat calcitonin receptor [3]): 14.7 nM
IC50 [4]: 0.172 nM
B5: N^ε1N^ε1-[(4S)-4-carboxy-4-(19-carboxynonadecanoylamino)butanoyl]-[His14,Arg17,Pro21,Pro27,Pro34]-h-amylin (peptide)
peptide: K([γGlu-C20 diacid])CNTATCATQRLAHFLRHSSPNFGAIPSSTNVGPNTY-NH2
modifications: disulfide 2-7; N-terminus assumed
SMILES: CC[C@H](C)[C@H](NC(=O)[C@H](C)NC(=O)CNC(=O)[C@H](Cc1ccccc1)NC(=O)[C@H](CC(N)=O)NC(=O)[C@@H]1CCCN1C(=O)[C@H](CO)NC(=O)[C@H](CO)NC(=O)[C@H](Cc1c[nH]cn1)NC(=O)[C@H](CCCNC(=N)N)NC(=O)[C@H](CC(C)C)NC(=O)[C@H](Cc1ccccc1)NC(=O)[C@H](Cc1c[nH]cn1)NC(=O)[C@H](C)NC(=O)[C@H](CC(C)C)NC(=O)[C@H](CCCNC(=N)N)NC(=O)[C@H](CCC(N)=O)NC(=O)[C@@H](NC(=O)[C@H](C)NC(=O)[C@@H]1CSSC[C@H](NC(=O)[C@@H](N)CCCCNC(=O)CC[C@H](NC(=O)CCCCCCCCCCCCCCCCCCC(=O)O)C(=O)O)C(=O)N[C@@H](CC(N)=O)C(=O)N[C@@H]([C@@H](C)O)C(=O)N[C@@H](C)C(=O)N[C@@H]([C@@H](C)O)C(=O)N1)[C@@H](C)O)C(=O)N1CCC[C@H]1C(=O)N[C@@H](CO)C(=O)N[C@@H](CO)C(=O)N[C@H](C(=O)N[C@@H](CC(N)=O)C(=O)N[C@H](C(=O)NCC(=O)N1CCC[C@H]1C(=O)N[C@@H](CC(N)=O)C(=O)N[C@H](C(=O)N[C@@H](Cc1ccc(O)cc1)C(N)=O)[C@@H](C)O)C(C)C)[C@@H](C)O
notes: Analogue of human amylin; disulfide and C-terminal amide as told for h-amylin; also called compound 67

Second part, the binder before the results:

B2: N^ε1-[2-[2-[2-[[2-[2-[2-[[(4S)-4-carboxy-4-(19-carboxynonadecanoylamino)butanoyl]amino]ethoxy]ethoxy]acetyl]amino]ethoxy]ethoxy]acetyl]-[Arg17,Pro21,Pro27,Pro31 … (peptide)
peptide: K([AEEA-AEEA-γGlu-C20 diacid])CNTATCATQRLANFLRHSSPNFGAIPSSTPVGSNTY-NH2
modifications: disulfide 2-7; N-terminus assumed
SMILES: CC[C@H](C)[C@H](NC(=O)[C@H](C)NC(=O)CNC(=O)[C@H](Cc1ccccc1)NC(=O)[C@H](CC(N)=O)NC(=O)[C@@H]1CCCN1C(=O)[C@H](CO)NC(=O)[C@H](CO)NC(=O)[C@H](Cc1c[nH]cn1)NC(=O)[C@H](CCCNC(=N)N)NC(=O)[C@H](CC(C)C)NC(=O)[C@H](Cc1ccccc1)NC(=O)[C@H](CC(N)=O)NC(=O)[C@H](C)NC(=O)[C@H](CC(C)C)NC(=O)[C@H](CCCNC(=N)N)NC(=O)[C@H](CCC(N)=O)NC(=O)[C@@H](NC(=O)[C@H](C)NC(=O)[C@@H]1CSSC[C@H](NC(=O)[C@@H](N)CCCCNC(=O)COCCOCCNC(=O)COCCOCCNC(=O)CC[C@H](NC(=O)CCCCCCCCCCCCCCCCCCC(=O)O)C(=O)O)C(=O)N[C@@H](CC(N)=O)C(=O)N[C@@H]([C@@H](C)O)C(=O)N[C@@H](C)C(=O)N[C@@H]([C@@H](C)O)C(=O)N1)[C@@H](C)O)C(=O)N1CCC[C@H]1C(=O)N[C@@H](CO)C(=O)N[C@@H](CO)C(=O)N[C@H](C(=O)N1CCC[C@H]1C(=O)N[C@H](C(=O)NCC(=O)N[C@@H](CO)C(=O)N[C@@H](CC(N)=O)C(=O)N[C@H](C(=O)N[C@@H](Cc1ccc(O)cc1)C(N)=O)[C@@H](C)O)C(C)C)[C@@H](C)O
notes: Analogue of human amylin; disulfide and C-terminal amide as told for h-amylin; also called compound 96
Ratio hCT/hAmylin binding [1]: 79.6
Ratio rCT/rAmylin binding (rat calcitonin receptor [2]): 118
IC50 (rat calcitonin receptor [3]): 62.2 nM
IC50 [4]: 0.529 nM

B3: N^ε1-[2-[2-[2-[[2-[2-[2-[[(4S)-4-carboxy-4-(19-carboxynonadecanoylamino)butanoyl]amino]ethoxy]ethoxy]acetyl]amino]ethoxy]ethoxy]acetyl]-[Arg17,Pro21,Pro27,Pro34 … (peptide)
peptide: K([AEEA-AEEA-γGlu-C20 diacid])CNTATCATQRLANFLRHSSPNFGAIPSSTNVGPNTY-NH2
modifications: disulfide 2-7; N-terminus assumed
SMILES: CC[C@H](C)[C@H](NC(=O)[C@H](C)NC(=O)CNC(=O)[C@H](Cc1ccccc1)NC(=O)[C@H](CC(N)=O)NC(=O)[C@@H]1CCCN1C(=O)[C@H](CO)NC(=O)[C@H](CO)NC(=O)[C@H](Cc1c[nH]cn1)NC(=O)[C@H](CCCNC(=N)N)NC(=O)[C@H](CC(C)C)NC(=O)[C@H](Cc1ccccc1)NC(=O)[C@H](CC(N)=O)NC(=O)[C@H](C)NC(=O)[C@H](CC(C)C)NC(=O)[C@H](CCCNC(=N)N)NC(=O)[C@H](CCC(N)=O)NC(=O)[C@@H](NC(=O)[C@H](C)NC(=O)[C@@H]1CSSC[C@H](NC(=O)[C@@H](N)CCCCNC(=O)COCCOCCNC(=O)COCCOCCNC(=O)CC[C@H](NC(=O)CCCCCCCCCCCCCCCCCCC(=O)O)C(=O)O)C(=O)N[C@@H](CC(N)=O)C(=O)N[C@@H]([C@@H](C)O)C(=O)N[C@@H](C)C(=O)N[C@@H]([C@@H](C)O)C(=O)N1)[C@@H](C)O)C(=O)N1CCC[C@H]1C(=O)N[C@@H](CO)C(=O)N[C@@H](CO)C(=O)N[C@H](C(=O)N[C@@H](CC(N)=O)C(=O)N[C@H](C(=O)NCC(=O)N1CCC[C@H]1C(=O)N[C@@H](CC(N)=O)C(=O)N[C@H](C(=O)N[C@@H](Cc1ccc(O)cc1)C(N)=O)[C@@H](C)O)C(C)C)[C@@H](C)O
notes: Analogue of human amylin; disulfide and C-terminal amide as told for h-amylin; also called compound 98
Ratio hCT/hAmylin binding [1]: 74.1
Ratio rCT/rAmylin binding (rat calcitonin receptor [2]): 176
IC50 (rat calcitonin receptor [3]): 24.1 nM
IC50 [4]: 0.137 nM
